US20200317768A1 (published 2020)
Positions count from the first letter of the chain named.

Assays:
[1] = target: T1, human FcγRIIb extracellular domain, C-terminal His-tag (human, UniProt P31994 43-217); assay: SPR (BIACORE), antibody captured, FcγR analyte
T1 construct: also called humanFcgRIIb; not shown: His-tag added to C-terminus
T1 sequence: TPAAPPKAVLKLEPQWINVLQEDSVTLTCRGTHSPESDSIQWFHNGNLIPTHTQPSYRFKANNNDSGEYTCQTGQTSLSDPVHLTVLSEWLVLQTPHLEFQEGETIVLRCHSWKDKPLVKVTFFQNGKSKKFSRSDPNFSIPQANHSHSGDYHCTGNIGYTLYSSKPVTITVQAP

[2] = target: T2, human FcγRIIIaV extracellular domain, C-terminal His-tag (human, UniProt P08637 17-208); assay: SPR (BIACORE), antibody captured, FcγR analyte
T2 construct: also called FcgRIIIaV; not shown: His-tag added to C-terminus
T2 sequence (P08637 17-208 F176V): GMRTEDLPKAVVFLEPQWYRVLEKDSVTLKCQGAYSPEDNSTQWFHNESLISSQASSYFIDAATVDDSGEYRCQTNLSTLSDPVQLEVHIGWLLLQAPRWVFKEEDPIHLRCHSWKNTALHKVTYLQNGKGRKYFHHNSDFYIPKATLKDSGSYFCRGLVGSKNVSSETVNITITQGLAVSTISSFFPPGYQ

[3] = target: T3, human FcγRIIaH extracellular domain, C-terminal His-tag (human, UniProt P12318 34-217); assay: SPR (BIACORE); KD of parent SG1 / KD of variant;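 note: relative to parent M103205H795-SG1 carrying the SG1 human heavy chain constant region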
T3 construct: also called human FcγRIIa (type H); FcgRIIaH; not shown: His-tag added to C-terminus
T3 sequence: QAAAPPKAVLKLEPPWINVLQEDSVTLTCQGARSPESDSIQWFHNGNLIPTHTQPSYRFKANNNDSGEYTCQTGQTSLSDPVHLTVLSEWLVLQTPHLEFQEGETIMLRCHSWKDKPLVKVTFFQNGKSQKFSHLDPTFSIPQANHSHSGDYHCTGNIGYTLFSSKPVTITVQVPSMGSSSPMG

[4] = target: T4, cynomolgus monkey FcγRIIa3 extracellular domain, C-terminal His-tag (cynomolgus monkey); assay: SPR (BIACORE); KD of parent SG1 / KD of variant;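 note: relative to parent M103205H795-SG1 carrying the SG1 human heavy chain constant region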
T4 construct: also called cyno FcγRIIa3; cynoFcgRIIa3; not shown: His-tag added to C-terminus
T4 chain: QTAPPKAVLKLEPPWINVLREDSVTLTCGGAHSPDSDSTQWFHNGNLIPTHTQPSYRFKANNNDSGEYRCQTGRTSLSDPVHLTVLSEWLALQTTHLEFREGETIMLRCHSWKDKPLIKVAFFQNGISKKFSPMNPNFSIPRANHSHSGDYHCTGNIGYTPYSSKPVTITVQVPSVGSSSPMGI

[5] = target: T1, human FcγRIIb extracellular domain, …; assay: SPR (BIACORE); KD of parent SG1 / KD of variant;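 note: relative to parent M103205H795-SG1 carrying the SG1 human heavy chain constant region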
[6] = target: T5, cynomolgus monkey FcγRIIb extracellular domain, C-terminal His-tag (cynomolgus monkey); assay: SPR (BIACORE); KD of parent SG1 / KD of variant;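 note: relative to parent M103205H795-SG1 carrying the SG1 human heavy chain constant region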
T5 construct: also called cyno FcγRIIb; cynoFcγRIIb; not shown: His-tag added to C-terminus
T5 chain: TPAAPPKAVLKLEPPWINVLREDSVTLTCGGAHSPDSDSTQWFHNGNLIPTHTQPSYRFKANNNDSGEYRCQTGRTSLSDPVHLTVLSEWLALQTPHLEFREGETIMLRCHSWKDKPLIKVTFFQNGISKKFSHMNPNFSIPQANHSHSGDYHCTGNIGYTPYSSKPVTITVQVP

[7] = target: T2, human FcγRIIIaV extracellular domain, …; assay: SPR (BIACORE); KD of parent SG1 / KD of variant
[8] = target: T6, human FcγRIIaR extracellular domain, C-terminal His-tag (human, UniProt P12318 34-217); assay: SPR (BIACORE); KD of parent SG1 / KD of variant
T6 construct: also called human FcγRIIa (type R); FcgRIIaR; not shown: His-tag added to C-terminus
T6 chain: T3 sequence with H134R

[9] = target: T7, cynomolgus monkey FcγRIIa2 extracellular domain, C-terminal His-tag (cynomolgus monkey); assay: SPR (BIACORE); KD of parent SG1 / KD of variant
T7 construct: also called cyno FcγRIIa2; cynoFcgRIIa2; not shown: His-tag added to C-terminus
T7 chain: T4 chain with I127K, K130N, P133H, R142Q

[10] = target: T8, cynomolgus monkey FcγRIIa1 extracellular domain, C-terminal His-tag (cynomolgus monkey); assay: SPR (BIACORE); KD of parent SG1 / KD of variant
T8 construct: also called cyno FcγRIIa1; cynoFcgRIIa1; not shown: His-tag added to C-terminus
T8 chain: T4 chain with T95P, A121T, S128A, P133H, N135D

B1: MS_M103205H795-SG1/M103202L889-SK1 (antibody, human IgG1, kappa)
heavy: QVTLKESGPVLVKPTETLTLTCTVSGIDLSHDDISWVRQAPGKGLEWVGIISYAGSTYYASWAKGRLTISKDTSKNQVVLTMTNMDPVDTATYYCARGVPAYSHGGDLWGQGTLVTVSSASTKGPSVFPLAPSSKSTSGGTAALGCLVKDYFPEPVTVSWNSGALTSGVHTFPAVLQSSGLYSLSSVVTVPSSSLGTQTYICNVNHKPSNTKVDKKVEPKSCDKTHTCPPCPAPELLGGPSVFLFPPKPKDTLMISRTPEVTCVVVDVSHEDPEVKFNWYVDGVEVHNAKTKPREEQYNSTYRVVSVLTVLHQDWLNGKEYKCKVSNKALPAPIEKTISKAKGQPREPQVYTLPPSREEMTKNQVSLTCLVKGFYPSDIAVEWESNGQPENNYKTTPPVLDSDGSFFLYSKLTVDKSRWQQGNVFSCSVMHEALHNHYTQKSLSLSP
light: DIVMTQSPATLSLSPGERATLSCTSSQSVYHANWLSWFQQKPGQPPKLLIYWASTLAYGVPSRFSGSGSGTDFTLTISSLQPEDAATYYCAGGYGGGRYAFGQGTKVEIKRTVAAPSVFIFPPSDEQLKSGTASVVCLLNNFYPREAKVQWKVDNALQSGNSQESVTEQDSKDSTYSLSSTLTLSKADYEKHKVYACEVTHQGLSSPVTKSFNRGEC
notes: Parent antibody with SG1 human heavy chain constant region; also called MS1032LO06-SG1
1 fold: KD fold (SG1 = 1) [3] | KD fold (SG1 = 1) [4] | KD fold (SG1 = 1) [5] | KD fold (SG1 = 1) [6] | KD fold (SG1 = 1) [7] | KD fold (SG1 = 1) [8] | KD fold (SG1 = 1) [9] | KD fold (SG1 = 1) [10]
620 nM: Kd [2]
4700 nM: Kd [1]
